{"source": "patent US20100119506A1", "about": "“Effectors of PAR-2 Activation and Their Use in the Modulation of Inflammation” (BOEHRINGER INGELHEIM INTERNATIONAL GMBH, priority 2008, published 2010)", "key": {"[1]": {"target": "PAR-2 peptide (Homo sapiens, UniProt P55085)", "test": "ELISA binding to PAR-2 peptide", "conditions": "peptide coupled to Transferrin", "experimental": "(§1) The molecular selectivity of antibodies for PAR-2 versus PAR-1 and PAR-4 was assessed using peptides derived from the N-terminal regions of all three PARs: […]"}, "[2]": {"target": "T1, PAR-1 peptide (Homo sapiens, UniProt P25116)", "T1 sequence (P25116 38-66 limits assumed)": "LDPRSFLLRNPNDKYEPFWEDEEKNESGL", "test": "ELISA binding to PAR-1 peptide", "experimental": "as §1"}, "[3]": {"target": "T2, PAR-4 peptide (Homo sapiens, UniProt Q96RI0, C54S)", "T2 sequence (Q96RI0 44-71 C54S)": "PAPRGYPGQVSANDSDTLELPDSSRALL", "test": "ELISA binding to PAR-4 peptide", "experimental": "as §1"}, "[4]": {"target": "T3, PAR-2 (Homo sapiens, UniProt P55085)", "T3 sequence (P55085 26-397)": "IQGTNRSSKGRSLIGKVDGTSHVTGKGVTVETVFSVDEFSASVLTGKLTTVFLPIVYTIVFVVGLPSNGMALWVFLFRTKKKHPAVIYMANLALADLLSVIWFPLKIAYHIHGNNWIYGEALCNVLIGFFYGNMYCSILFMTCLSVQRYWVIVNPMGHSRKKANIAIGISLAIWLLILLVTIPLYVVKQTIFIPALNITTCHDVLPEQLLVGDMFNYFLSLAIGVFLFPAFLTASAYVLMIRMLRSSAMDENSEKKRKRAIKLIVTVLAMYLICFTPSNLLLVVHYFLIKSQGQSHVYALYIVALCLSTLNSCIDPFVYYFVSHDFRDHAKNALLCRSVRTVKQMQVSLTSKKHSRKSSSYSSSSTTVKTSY", "test": "Binding to PAR-2 transfected HEK293 cells", "format": "cell-based", "design": "expressed in transfected cells; host or cells: HEK293", "conditions": "for Ratio of EC50 Fab EC50 IgG: HEK-PAR-2 binding; for EC50: Fab, read-out: Binding of Fab to HEK-PAR-2 (#3) (3RBO64) EC50", "source_text": "These Fabs were then converted to the IgG4_Pro (“IgG4p”) format. The IgG4_Pro antibodies consist of the variable VH and VL regions derived from corresponding Fabs fused to the constant regions of human IgG4 including a Ser241Pro mutation in the hinge region of the H-chain. The proline substitution in the hinge region is known to prevent the formation of half-molecules in natural human IgG4 molecules (Angal et al. (1993) Molec. Immunol. 30:105-108)."}, "[5]": {"target": "T4, mouse PAR-2 (Mus musculus, UniProt P55086)", "T4 construct": "endogenous in cells; host or cells: LLC (mouse Lewis lung carcinoma)", "T4 sequence (P55086 26-399)": "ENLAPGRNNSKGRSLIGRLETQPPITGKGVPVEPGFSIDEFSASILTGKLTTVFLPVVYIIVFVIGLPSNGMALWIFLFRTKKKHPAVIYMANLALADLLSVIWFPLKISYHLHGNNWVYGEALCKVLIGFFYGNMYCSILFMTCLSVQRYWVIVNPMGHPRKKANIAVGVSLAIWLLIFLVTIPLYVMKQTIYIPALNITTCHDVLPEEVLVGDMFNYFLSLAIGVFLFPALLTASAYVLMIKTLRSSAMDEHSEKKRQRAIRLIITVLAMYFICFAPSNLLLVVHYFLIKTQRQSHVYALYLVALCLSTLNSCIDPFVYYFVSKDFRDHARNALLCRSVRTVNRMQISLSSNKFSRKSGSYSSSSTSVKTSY", "test": "FLIPR trypsin-induced calcium release in mouse LLC cells", "format": "cell-based", "experimental": "To further assess functional cross-reactivity with mouse PAR-2, the antibodies were tested in FLIPR assays with the mouse Lewis lung carcinoma (LLC) cell line."}, "[6]": {"target": "T3, PAR-2", "test": "Trypsin induced calcium response (FLIPR) in A549 cells", "format": "cell-based", "design": "expressing endogenous PAR-2; endogenous in cells; host or cells: A549", "conditions": "for inhibition of trypsin mediated calcium response/release in A549 (in words): full antibodies", "experimental": "Using A549 cells, PAR-2 activation was measured by detecting the calcium response following trypsin stimulation. Fabs were tested in this assay for their ability to inhibit this response. […] Antibody concentrations are expressed as μg/ml (FIG. 6).\n(§2) Thrombin activates PAR-1, whereas PAR-2 is activated by trypsin in A549 cells."}, "[7]": {"target": "T5, PAR-1 (Homo sapiens, UniProt P25116)", "T5 construct": "endogenous in cells; host or cells: A549", "T5 sequence (P25116 22-425)": "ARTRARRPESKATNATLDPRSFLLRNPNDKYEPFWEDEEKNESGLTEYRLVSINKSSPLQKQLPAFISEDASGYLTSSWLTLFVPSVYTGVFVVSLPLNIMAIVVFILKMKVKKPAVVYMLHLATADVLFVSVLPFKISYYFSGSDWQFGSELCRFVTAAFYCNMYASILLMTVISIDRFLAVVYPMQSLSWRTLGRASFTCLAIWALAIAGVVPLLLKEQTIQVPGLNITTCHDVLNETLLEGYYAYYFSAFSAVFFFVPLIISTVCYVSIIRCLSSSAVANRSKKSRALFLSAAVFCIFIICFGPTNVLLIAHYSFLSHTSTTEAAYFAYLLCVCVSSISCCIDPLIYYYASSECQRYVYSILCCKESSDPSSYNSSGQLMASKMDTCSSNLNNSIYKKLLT", "test": "Thrombin-induced calcium response (FLIPR) in A549 cells", "format": "cell-based", "conditions": "antibody concentrations up to 300 nM", "source_text": "as §2"}}}
{"molecule": "Ab4999: affinity matured from Ab3777, L-CDR3 optimized; light chain SEQ ID NO:27, heavy chain SEQ ID NO:7 (antibody, V domains shown, Antibody identified via phage display; Antibody modified via affinity maturation) VH: QVQLVESGGGLVQPGGSLRLSCAASGFTFSSYAMNWVRQAPGKGLEWVSTISYSSSATSYADSVKGRFTISRDNSKNTLYLQMNSLRAEDTAVYYCARIQNDPMDVWGQGTLVTVSS VL: DIELTQPPSVSVAPGQTARISCSGDNLGKKYVQWYQQKPGQAPVLVIYDDSNRPSGIPERFSGSNSGNTATLTISGTQAEDEADYYCQTWDYSSIRDETNVFGGGTKLTVLGQ", "values": [{"measurement": "binding to PAR-2 peptide (in words)", "setting": "[1]", "value": "specific binding"}, {"measurement": "binding to PAR-1 peptide (in words)", "setting": "[2]", "value": "did not exhibit detectable binding"}, {"measurement": "binding to PAR-4 peptide (in words)", "setting": "[3]", "value": "no binding"}, {"measurement": "Ratio of EC50 Fab EC50 IgG", "setting": "[4]", "value": 0.3}]}
{"molecule": "Par-C: codon-optimized anti-PAR-2 antibody; Ab4999 light chain (SEQ ID NO:37), Ab5007 or Ab5151 heavy chain (SEQ ID NO:39) (antibody, V domains shown, Optimized cDNA sequence of variable region of Ab5007 or Ab5151 heavy chain; Optimized cDNA sequence of variable region of Ab4999 light chain) VH: QVELVESGGGLVQPGGSLRLSCAASGFTFSSYAMNWVRQAPGKGLEWVSAISFSGHLTGYADSVKGRFTISRDNSKNTLYLQMNSLRAEDTAVYYCARIQNDPMDVWGQGTLVTVSS VL: DIELTQPPSVSVAPGQTARISCSGDNLGKKYVQWYQQKPGQAPVLVIYDDSNRPSGIPERFSGSNSGNTATLTISGTQAEDEADYYCQTWDYSSIRDETNVFGGGTKLTVLGQ", "values": [{"measurement": "inhibition of trypsin-induced calcium release in LLC cells (in words)", "setting": "[5]", "value": "efficient inhibition"}, {"measurement": "IC50", "setting": "[5]; trypsin-induced, value (SD)", "value": 0.7, "unit": "nM"}, {"measurement": "inhibition of trypsin mediated calcium response/release in A549 (in words)", "setting": "[6]", "value": "potent inhibition"}, {"measurement": "IC50", "setting": "[6]; trypsin stimulated, value (SD)", "value": 1, "unit": "nM"}]}
{"molecule": "Ab5007: affinity matured from Ab3777, H-CDR2 optimized; heavy chain SEQ ID NO:26, light chain SEQ ID NO:6 (antibody, V domains shown, Antibody modified via affinity maturation; Antibody identified via phage display) VH: QVQLVESGGGLVQPGGSLRLSCAASGFTFSSYAMNWVRQAPGKGLEWVSAISFSGHLTGYADSVKGRFTISRDNSKNTLYLQMNSLRAEDTAVYYCARIQNDPMDVWGQGTLVTVSS VL: DIELTQPPSVSVAPGQTARISCSGDNLGKKYVQWYQQKPGQAPVLVIYDDSNRPSGIPERFSGSNSGNTATLTISGTQAEDEADYYCSSWDVGSDGWVFGGGTKLTVLGQ", "values": [{"measurement": "EC50", "setting": "[4]", "value": 9.66, "unit": "nM"}, {"measurement": "Ratio of EC50 Fab EC50 IgG", "setting": "[4]", "value": 19.3}]}
{"molecule": "Ab5003: affinity matured from Ab3777, H-CDR2 optimized; heavy chain SEQ ID NO:24, light chain SEQ ID NO:6 (antibody, V domains shown, Antibody modified via affinity maturation; Antibody identified via phage display) VH: QVQLVESGGGLVQPGGSLRLSCAASGFTFSSYAMNWVRQAPGKGLEWVSAISYKGHLTGYADSVKGRFTISRDNSKNTLYLQMNSLRAEDTAVYYCARIQNDPMDVWGQGTLVTVSS VL: DIELTQPPSVSVAPGQTARISCSGDNLGKKYVQWYQQKPGQAPVLVIYDDSNRPSGIPERFSGSNSGNTATLTISGTQAEDEADYYCSSWDVGSDGWVFGGGTKLTVLGQ", "values": [{"measurement": "EC50", "setting": "[4]", "value": 7.03, "unit": "nM"}, {"measurement": "Ratio of EC50 Fab EC50 IgG", "setting": "[4]", "value": 15.3}]}
{"molecule": "Ab4997: affinity matured from Ab3777, H-CDR2 optimized; heavy chain SEQ ID NO:23, light chain SEQ ID NO:6 (antibody, V domains shown, Antibody modified via affinity maturation; Antibody identified via phage display) VH: QVQLVESGGGLVQPGGSLRLSCAASGFTFSSYAMNWVRQAPGKGLEWVSAISYNGKLKGYADSVKGRFTISRDNSKNTLYLQMNSLRAEDTAVYYCARIQNDPMDVWGQGTLVTVSS VL: DIELTQPPSVSVAPGQTARISCSGDNLGKKYVQWYQQKPGQAPVLVIYDDSNRPSGIPERFSGSNSGNTATLTISGTQAEDEADYYCSSWDVGSDGWVFGGGTKLTVLGQ", "values": [{"measurement": "EC50", "setting": "[4]", "value": 3.03, "unit": "nM"}, {"measurement": "Ratio of EC50 Fab EC50 IgG", "setting": "[4]", "value": 8.0}]}
{"molecule": "Ab5151: cross-cloned: light chain of Ab4999 combined with the heavy chain of Ab5007 (antibody, V domains shown) VH: QVQLVESGGGLVQPGGSLRLSCAASGFTFSSYAMNWVRQAPGKGLEWVSAISFSGHLTGYADSVKGRFTISRDNSKNTLYLQMNSLRAEDTAVYYCARIQNDPMDVWGQGTLVTVSS VL: DIELTQPPSVSVAPGQTARISCSGDNLGKKYVQWYQQKPGQAPVLVIYDDSNRPSGIPERFSGSNSGNTATLTISGTQAEDEADYYCQTWDYSSIRDETNVFGGGTKLTVLGQ", "values": [{"measurement": "binding to PAR-2 peptide (in words)", "setting": "[1]", "value": "specific binding"}, {"measurement": "binding to PAR-1 peptide (in words)", "setting": "[2]", "value": "did not exhibit detectable binding"}, {"measurement": "binding to PAR-4 peptide (in words)", "setting": "[3]", "value": "no binding"}, {"measurement": "inhibition of the thrombin induced calcium response (in words)", "setting": "[7]", "value": "no inhibition"}, {"measurement": "inhibition of trypsin mediated calcium response/release in A549 (in words)", "setting": "[6]", "value": "significant inhibition"}]}
{"molecule": "Ab4994: affinity matured from Ab3777, H-CDR2 optimized; heavy chain SEQ ID NO:21, light chain SEQ ID NO:6 (antibody, V domains shown, Antibody modified via affinity maturation; Antibody identified via phage display) VH: QVQLVESGGGLVQPGGSLRLSCAASGFTFSSYAMNWVRQAPGKGLEWVSAISYSGHLTGYADSVKGRFTISRDNSKNTLYLQMNSLRAEDTAVYYCARIQNDPMDVWGQGTLVTVSS VL: DIELTQPPSVSVAPGQTARISCSGDNLGKKYVQWYQQKPGQAPVLVIYDDSNRPSGIPERFSGSNSGNTATLTISGTQAEDEADYYCSSWDVGSDGWVFGGGTKLTVLGQ", "values": [{"measurement": "EC50", "setting": "[4]", "value": 1.9, "unit": "nM"}, {"measurement": "Ratio of EC50 Fab EC50 IgG", "setting": "[4]", "value": 4.8}]}
